From the DeepSol protein solubility set

Experiment: soluble on expression in E. coli; label from the status in PepcDB or PDB records

Which “soluble on expression in E. coli” value does the source give for “MFTSKPAFKIKNKASKSYRNTAVSKKLKEKRLAEHVRPSCFNIIRPLKKDIQIPVPSSRFLNKIQIHRIASGSQNTQFRQFNKTSIKSSKKYLNSFMAFRAYYSQFGSGVKQNVLSSLLAEEWHADKMQHGIWDYFAQQYNFINPGFGFVEWLTNNYAEVRGDGYWEDVFVHLAL” here?
Its value is “not soluble”.

For “MFTTYKNINELENAYDEERKQLNDAFNQIDELRHQTRKKCEQMYDHFLYLKHKMNYSEDAMIRMTRIIESFDRETNQRIRHHEMKLEDYKDELRREYLKQSDRIEGDELEHHHHHH”, which “soluble on expression in E. coli” value is on record?
The value was “not soluble”.

With “MFVPLAMLAGMFSYYETFHETEALQDDLLRQAALYVAPDSKPETLPEGDGDTRIFVQMPQQEDPVVSLPAHLADGLHTLQADGDDDYYRVYIRTTEQGRIAVMQENEYREDLAADAARQSVLPLLAALPLMILLTVWITHKAMRPVRKLSQSLEQRRINDLSALSVDNIPSEIRGFVTAINLLLKRADEDIRHRQRFVADAAHELRTPMTALSLQAERLNNMSLPPDAARQPAVLQQSIRRNKHLLEQLLALARSQSDETPLTKTTFGLQSRFRQVLQELMPLALEKRQDIGVAVGGDVEVSADETEIYTLIKTFADNAVRYTPPEGRIDLGFTDEGKYLAVWVEDNGNGIPESERARVLDPFYRILGTEQQGTGLGLSIADTLAKKYGGHLELTDSRRFGHGLLIRALLDKETLK” as the sequence, how does the “soluble on expression in E. coli” value read?
Its value is “not soluble”.

With “MFWVFLVRHGEAYPEEVDPQRPLTEKGRKDTEKIAKALKNFGVKPELIYTSPKLRAKQTAKIIANILGVEKIRETELLLPNTDPKETSKLIDGKNVVLCGHLPNLARLFSLLYLSEDNERRVNLSTSGALVLKWKDFWVLELLLEPSVL” as the sequence, how does the “soluble on expression in E. coli” value read?
The value was “not soluble”.

For “MFYILNNVLKNIKTLDNVKSKFFLKDSFLKNKLKANNLDDNLSSHIFFNEIFVSLRDDEKKEEHKKVLLFNKVRNDKKHRKRAFQKRGYWKKMHYFIRKNNMMSYAFKVQNIDYEKIKKLKRGEVYSN”, which “soluble on expression in E. coli” value is on record?
The value was “not soluble”.

Which “soluble on expression in E. coli” value does the source give for “MGAAMGPALAVDAAQEAPTADNSPAVEAPQTPEEGEQSAQTSQDNPRYESQIVRAGHSAEAEQVGDVSEDTIFEYSEFDIPEGWFVSVDEDSGKVTVSTPPDAQDGDNYTVKVKAVDLDGNVTWSEVTFTVGDPETDNPEIEPLDADAPEVELPAAE” here?
The value was “not soluble”.

Which “soluble on expression in E. coli” value does the source give for “MGAGREVSVSLDGVRDKNLMQLKILNTVLFPVRYNDKYYADAIAAGEFTKLAYYNDICVGAIACRLEKKESGAMRVYIMTLGVLAPYRGIGIGSNLLNHVLDMCSKQNMCEIYLHVQTNNEDAIKFYKKFGFEITDTIQNYYINIEPRDCYVVSKSFAQSEANK” here?
The value was “soluble”.

Which “soluble on expression in E. coli” value does the source give for “MGALLKGRIYTMSVKTLKRTITAVAILAASVMSSSAWSNDLKEIRERGVLRHIGVPYANFVSYIEQGEMHTLTGLDVDIVKGFASSLGVRYEYVPAQWSDMVGKLTGQDVQYRHNRAVVGGSVPIEGDLIANGVTILDWREEVLDFSQDYFPSAVWLVSRTDSSLSPIKPSGSIDEDVKTVKELIDGREVLALEHSCLDPNLYDLYDTGAKVILPDGKRLLNEMVPAIMKNDAESTLLDVADTLIALEKWPG” here?
Its value is “not soluble”.

With “MGALVIRGIRNFNLENRAEREISKMKPSVAPRHPSTNSLLREQISLYPEVKGEIARKDEKLLSFLKDVYVDSKDPVSSLQVKAAETCQEPKEFRLPKDHHFDMINIKSIPKGKISIVEALTLLNNHKLFPETWTAEKIMQEYQLEQKDVNSLLKYFVTFEVEIFPPEDKKAIRSK” as the sequence, how does the “soluble on expression in E. coli” value read?
Its value is “soluble”.

With “MGAPALPQIWQLYLKNYRIATFKNWPFLEDCACTPERMAEAGFIHCPTENEPDLAQCFFCFKELEGWEPDDNPIEEHRKHSPGCAFLTVKKQMEELTVSEFLKLDRQRAKNKIAKETNNKQKEFEETAKTTRQSIEQLAA” as the sequence, how does the “soluble on expression in E. coli” value read?
Its value is “soluble”.

With “MGASKDAMDEEGNAAADLGLVARIRESFDSLTATEREAAQFILGHLTDVLVCNSVELSQLSGISQPTLSRLYRKLGYANAGEFRRDVRRVHRPGSPELSRHTQCDDLVADHLRRDEESLKRTFEGIDRAQLSSACQAMATAPHVAVVGYHSSYPVALHMREQLMRLRGNVDILPNPGQSIAEDLVDYAAGDVIVIIGVGRRLPFFSRLIDVMLERGLTVVVIGDISARNAVIGRNVAFFKVVLSSHVLTSFTAAFALIALMVDEVGKCLVDTEDEVHARIEGINDCFDALNELED” as the sequence, how does the “soluble on expression in E. coli” value read?
The value was “not soluble”.

Which “soluble on expression in E. coli” value does the source give for “MGASSSSSVSEKSIHQFTVKDSSGKEVDLSVYQGKVLLVVNVASKCGFTESNYTQLTELYRKYKDQGFVVLAFPCNQFLSQEPGTSEEAHQFACTRFKAEYPVFQKVRVNGQNAAPVYKFLKSKKPSFLGSRIKWNFTKFLVGKDGQVIDRYGTTVSPLSIQKDIEKALAQEL” here?
Its value is “soluble”.

With “MGCCQSKKARNNQRNNQRSDQMNRQHTQPSPNASTEQMAYPRQQPQGIPQGPPPAYAPPAAPKAPEKVVEPKNRRVTIAEPPERVAEPSPTPEDPELFTCIDQTEKEVEKEVEKRKSAPRAPVPAPTPAPQAAPQATPAAPAQAYPQQQQAAPVVYGSQPMVMGAAPVAPVVMAPPPVIMSPYPYYGGGVMFDPYYNGFYGGYGYGGFDFGYGGYGGYGCGFY” as the sequence, how does the “soluble on expression in E. coli” value read?
Its value is “not soluble”.

Which “soluble on expression in E. coli” value does the source give for “MGDPKAFLNIPRQEAGYRPVSERITDYSQVEQTLNTNSRKLQASRCMDCGVPFCHWACPIGNKQPEWQDALFKGKWKEAYEVLSSTCDFPEFTGRICPALCEKSCVLKLSCDQPVTIRENEAAIVEAAFREGYIQVQHPQRNGKKVAVVGAGPAGLVVANQLNLKGYTVTLFDKDEAAGGLLRFGIPNFKLDKNVIDRRMKILAAEGIQFEMGVEIDVNHLPEGFDAYCICTGTPTARDLSIPGRELKGIHFALEMLAQQNRILEGQTFPKDKLVNAKGKKVLVIGGGDTGSDCIGTSVRQGATSVTQIEIMPKPPVGHNPSTPWPQWPVVFKTTSSHEEGCTRRWCLTSNQFLGKNGKVTGVEVEEVEWTPATDGGRPTMNLTGKKEVIEADMVLLAMGFLKPEQPKFAENVFLAGDAATGASLVVRAMAGGRKAAADIDHYLVKLEHHHHHH” here?
Its value is “soluble”.

For “MGDTMQQRLTQDLTQFLASLPEDDRIKAINEIRMAIHQVSPFREEPVDCVLWVKNSQLMPNDYNPNNVAPPEKKLLQKSIEIDGFTQPIVVTHTDKNAMEIVDGFHRHEIGKGSSSLKLRLKGYLPVTCLEGTRNQRIAATIRHNRARGRHQITAMSEIVRELSQLGWDDNKIGKELGMDSDEVLRLKQINGLQELFADRQYSRAWTVK”, which “soluble on expression in E. coli” value is on record?
Its value is “soluble”.

With “MGEELNRLLDVLGNETRRRILFLLTKRPYFVSELSRELGVGQKAVLEHLRILEEAGLIESRVEKIPRGRPRKYYMIKKGLRLEILLTPTLFGSEMYEAKGVRKSPEYEQAKELIKSQEPINVKMRELAEFLHELNERIREIIEEKRELEEARILIETYIENTMRRLAEENRQIIEEIFRDIEKILPPGYARSLKEKFLNINI” as the sequence, how does the “soluble on expression in E. coli” value read?
Its value is “soluble”.

With “MGEGIGRVFFLKDEVGFQPLSNHQGLVVKLLESWREGDEPLALSPKTKERLLLAARYHDDGKRFTFHIVPDGKGGLTYSFRGHRFRVAQAVQDPYAQALIRGHHDYSTREVVNLAADFLEEGLGHRFPEDLFLLMMADQLEAELAVRLWQRRAGEVRPFVEFDLLPDGEGGFLLDPWPFRVDEVALDFLVYFHPYRGEEAKVVEGWGRALVGALEEGKVPEAFREEKRRVRLRPWAAGARKADDPEAFYDRFGLKPTPFQREVFKVAEGDPAHLLLAPTGTGKTEAAAFPALARGERLVFVLPTRSLVDDLEGRFRCYLKILAQEEGRPKALVVDTGHRQARFRFSPDGQEEATKERHLYHADVILTTLDKLLYRYFGYAEGVKSYTFPRRIHDRRTLFVFDEVHLYEATAWVNFRHLIASLYKAGVRFLVMSATMPGTYREELLLEGTLEHPAAKRPSRVLRYMPQGNPMEIIQSHRGKRVLVVLEEVKEAAELYKRLKGEGVFLYHGRLAEGQRRRVFGEVKRRDKAQEPYLLITTPAIEVGVDLDAEVLVTTLCPPENLLQRLGRVNRRGGGQGEAYVVGETYPDYLGSLPEGYLELLKALDGQDLAQGGEERLRQAIRYPKYLDPRAETFFEALQDYVYGLDLTQEPLHRKGFVATRGWTPSVRLRQGEDEVEVPIDRLVGRKEELTPVRVVERLLTDGETGNRRREEVPLRSGELYGRELVLNYPYPYDPELGFVELPKVFQRLRHPDPQRVQLLYAPEKDAGEAPEGVMDTDQVTGGGRRVLWYLGESAWAEPAKSGEVAEETEEEEEEGD” as the sequence, how does the “soluble on expression in E. coli” value read?
Its value is “soluble”.

Which “soluble on expression in E. coli” value does the source give for “MGEIQTLNEQHSVGKPVIRLSGISKSFDGKEIIGNLNLDVNHGEFLTILGPSGCGKTTVLRMIAGFETADQGQILLDDQDVTQVPAEQRHVNTVFQSYALFPHMTVFENVAFGLRMQKVPQSEIEPRVMEALRMVRLAEMAQRKPHQLSGGQQQRIAIARAVVNKPKVLLLDESLSALDYKLRKQMQSELKQLQRQLGITFIFVTHDQEEALSMSDRIIVMRSGKIEQDGSPREIYEDPKNLFVARFIGEINVFQATTIDRIDEKRIRVDIEGIESIVYYEDEVKAGDKLQVLLRPEDLRIEEIKESEEKGIVGHVTDRTYKGMTLESVVELESGMCVMVSEFFNEDDPDVDHSIGQKVAVTWVESWEVVLNDEQKA” here?
The value was “not soluble”.

With “MGEVQREKVAVIIGPTAVGKTKLSIDLAKALNGEIISGDSMQIYRTMDIGTAKVTKAEMDGIPHYMIDIKNPEDSFSVAEFQERVRKHIREITERGKLPIIVGGTGLYIQSVLFDYQFTDDAGDVIYREQREKLALERGVEYVHEKLQEVDPESAERIHANNVRRVIRALEIFHTTGEKMSEQIEKQEKELLYDVSLIGLTMDREMLYDRINLRVDLMMEQGLLEEVEGLYNRGIRDCQSIQAIGYKEIYDYFENRASLEDAVSQLKTNSRRYAKRQLTWFRNKMDVTWFDVTDGEKTSEILRYIEGKLQVKSNNSK” as the sequence, how does the “soluble on expression in E. coli” value read?
Its value is “not soluble”.

For “MGEVRVVGIRVEQPQNQPVLLLREANGDRYLPIWIGQSEAAAIALEQQGVEPPRPLTHDLIRDLIAALGHSLKEVRIVDLQEGTFYADLIFDRNIKVSARPSDSVAIALRVGVPIYVEEAVLAQAGLLIPDESDEEATTAVREDEVEKFKEFLDSVSPDDFKAT”, which “soluble on expression in E. coli” value is on record?
Its value is “soluble”.

For “MGFEDGFYTILHLAEGQHPNSKIPGGMYASSKDGKDVPVTAEPLGPQSKIRWWIARDPQAGDDMYTITEFRIDNSIPGQWSRSPVETEVPVYLYDRIKAEETGYTCAWRIQPADHGADGVYHIVGNVRIGSTDWADLREEYGEPQVYMKPVPVIPNVYIPRWFILGYEE”, which “soluble on expression in E. coli” value is on record?
Its value is “soluble”.

Which “soluble on expression in E. coli” value does the source give for “MGFFNFIKTVGEKLGIGDSEPTEKDFKTAFDNFQLGTEKVNIQVENGKVVLSGEVPDRETLEKALLVVGNAQGISSVDIGQLKVADTACMKASRFYEVKSGDNLWKIAEEVYGKGQGDKNTFIFEANKPMLKSPDKIYPGQVLRIPEIDRA” here?
Its value is “not soluble”.

With “MGFHPIELRIQILGLSAFGVDSKEIAAALDVPVRSVQRIIQRAKERGFDPATDPRVKMEYVEDAERSGRPKKGSKVMAAKSQAGSTSGSESVVAAGSEVGDGNRNSMPEAQA” as the sequence, how does the “soluble on expression in E. coli” value read?
The value was “not soluble”.

Which “soluble on expression in E. coli” value does the source give for “MGFIMEFAENLVLRLMENPEERDRKAREHIYEMHERCKKIKEMWALPIRPYGFWTFERHNAQLRWDPQISQVAGRRDPYDDLLEDNYTPPSSSSSSSD” here?
Its value is “soluble”.

With “MGFKTVAKEEKQQLVANVFHSVAAKYDLMNDLLSFGIHRIWKRFTIDCSGVRKGQKVLDLAGGTGDFSAKFSRIVGETGQVVLADINSSMLEVGRDKLRNLGVVGNINYVQANAEHLPFADNTFDCVVISFGLRNVTDKDKALKSMYRVLKPGGRLLVLEFSKPIFDPISQLYNFYSFNILPKVGGIVVNDAESYRYLAESIRMHPKQDELKTMMEHAGFESVNYYNLSAGIVALHRGYKLEHHHHHH” as the sequence, how does the “soluble on expression in E. coli” value read?
Its value is “not soluble”.
